Molecular target: T1, PS2-COOH terminus Y2H bait (PS2 COOH-terminal 39 amino acids, K410-I448) (human)
T1 construct: also called PS2-COOH-terminal bait; not shown: the LexA fusion partner of the bait and any linker
Assay: Y2H β-galactosidase liquid culture assay (ONPG)
Experimental: The yeast two-hybrid (Y2H) procedure that utilizes the LexA/transactivation system was performed, as described previously (Stabler, et al. 1999). The PS2 COOH-terminal 39-amino acids (residues […]) (see FIG. 1a and FIG. b) were used as bait to screen a human fetal brain cDNA library. Out of 10⁷ primary yeast transformants, 50 clones were selected for further analysis based on growth in the absence of leucine and a substantial blue color change when grown on 5-bromo-4-chloro-3-indolyl-β-D-galactopyranoside (X-gal) plates. False positives were subsequently eliminated based on their interactions with negative-control baits, such as LexA alone, nuclear lamin B, and CENP-C centromere protein. Plasmid DNAs were isolated from clones that fulfilled the above requirements, and the DNA sequences of their inserts were determined and compared with the GenBank/EMBL/DDBJ databases using the BLAST search program. […] Interaction of ubiquilin proteins with various PS1 and PS2 baits were quantified in liquid culture assays by the enzymatic conversion of o-nitrophenyl-β-D-galactopyranoside (ONPG) to o-nitrophenol and D-galactose by β-galactosidase enzyme encoded by an Y2H reporter plasmid.
Interaction between ubiquilin and the presenilins was quantified in Y2H β-galactosidase liquid culture assays. […]

T1 sequence (chain, as listed by the source limits assumed): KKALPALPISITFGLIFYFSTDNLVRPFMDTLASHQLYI

Binder | fold β-galactosidase activity compared with negative-control baits [fold]
ubiquilin-prey clone (FIG. 2 III, construct B without GST), Q378-S595 (other, not shown: large carriers, also called partial ubiquilin clone (encoding the COOH-terminal 218 residues)) QSLLQQITENPQLMQNMLSAPYMRSMMQSLSQNPDLAAQMMLNNPLFAGNPQLQEQMRQQLPTFLQQMQNPDTLSAMSNPRAMQALLQIQQGLQTLATEAPGLIPGFTPGLGALGSTGGSSGTNGSNATPSENTSPTAGTTEPGHQQFIQQMLQALAGVNPQLQNPEVRFQQQLEQLSAMGFLNREANLQALIATGGDINAAIERLLGSQHHSSISVS | > 55
near full-length ubiquilin-prey clone (FIG. 2 III, construct H without GST), M37-S595 (other, not shown: large carriers, also called near full-length clone (encoding residues 37-595); the longer ubiquilin clone) MKVTVKTPKEKEEFAVPENSSVQQFKEEISKRFKSHTDQLVLIFAGKILKDQDTLSQHGIHDGLTVHLVIKTQNRPQDHSAQQTNTAGTNVTTSSTPNSNSTSGSATSNPFGLGGLGGLAGLSSLGLNTTNFSELQSQMQRQLLSNPEMMVQIMENPFVQSMLSNPDLMRQLIMANPQMQQLIQRNPEISHMLNNPDIMRQTLELARNPAMMQEMMRNQDRALSNLESIPGGYNALRRMYTDIQEPMLSAAQEQFGGNPFASLVSNTSSGEGSQPSRTENRDPLPNPWAPQTSQSSSASSGTASTVGGTTGSTASGTSGQSTTAPNLVPGVGASMFNTPGMQSLLQQITENPQLMQNMLSAPYMRSMMQSLSQNPDLAAQMMLNNPLFAGNPQLQEQMRQQLPTFLQQMQNPDTLSAMSNPRAMQALLQIQQGLQTLATEAPGLIPGFTPGLGALGSTGGSSGTNGSNATPSENTSPTAGTTEPGHQQFIQQMLQALAGVNPQLQNPEVRFQQQLEQLSAMGFLNREANLQALIATGGDINAAIERLLGSQHHSSISVS | > 55

Source: US20030175278A1 (published 2003)
